Substitutions are numbered along the chain they refer to. In names and notes the source's numbering stands.
B1: AtMAPDA (Arabidopsis thaliana; H65A) (protein)
chain: MEWIQSLPKIELHAHLNGSIRDSTLLELARVLGEKGVIVFADVEHVIQKNDRSLVEVFKLFDLIAKLTTDHKTVTRITREVVEDFALENVVYLELRTTPKRSDSIGMSKRSYMEAVIQGLRSVSEVDIDFVTASDSQKLHNAGDGIGRKKIYVRLLLSIDRRETTESAMETVKLALEMRDVGVVGIDLSGNPLVGEWSTFLPALQYAKDNDLHITLHCGEVPNPKEIQAMLDFKPHRIGHACFFKDEDWTKLKSFRIPVEICLTSNIVTKSISSIDIHHFADLYNAKHPLILCTDDFGVFSTSLSNEYALAVRSLGLSKSETFALARAAIDATFAEDEVKQQLRFIFDSASPEHV
B2: AtMAPDA (Arabidopsis thaliana; T97A) (protein)
chain: B1 chain with A65H, T97A
B3: AtMAPDA (Arabidopsis thaliana; T98A) (protein)
chain: B1 chain with A65H, T98A
B4: AtMAPDA (Arabidopsis thaliana; N17A) (protein)
chain: B1 chain with N17A, A65H
B5: AtMAPDA (Arabidopsis thaliana; K100A) (protein)
chain: B1 chain with A65H, K100A
B6: AtMAPDA (Arabidopsis thaliana) (protein)
chain: B1 chain with A65H

What follows are proteins tested on CNc1ncnc2c1ncn2[C@@H]1O[C@H](COP(=O)(O)O)[C@@H](O)[C@H]1O (assay: purified protein). Settings: 20 mM potassium phosphate pH 7.2, 25 °C.
Type: biochemical, Arabidopsis thaliana

| Protein | Km |
| --- | --- |
| B1 | 5.51 µM |
| B2 | 8.94 µM |
| B3 | 4.52 µM |
| B4 | 7.12 µM |
| B5 | 6.89 µM |

Same assay, conditions: 20 mM potassium phosphate pH 7.2, 25 °C, 250 nM enzyme

| Protein | Km |
| --- | --- |
| B6 | 4.14 µM |

Reference: publication PMC6451127
